Measurements taken from publication PMC2680711.

Target: Alexa-546-labeled H3-H4(E63C) (UniProt P61830)
Experiment: other fluorescence titration

Chain of Vps75_(1−223) (Vps75 lacking the C-terminal acidic domain) (P53853 1-223): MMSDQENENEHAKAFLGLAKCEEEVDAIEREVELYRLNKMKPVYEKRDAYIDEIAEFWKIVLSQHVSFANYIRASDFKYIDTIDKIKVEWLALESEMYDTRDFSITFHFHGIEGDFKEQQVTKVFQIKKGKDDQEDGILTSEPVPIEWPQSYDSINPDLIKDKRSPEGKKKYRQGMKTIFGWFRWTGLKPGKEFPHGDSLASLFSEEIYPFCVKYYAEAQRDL

Substance: Rtt109 (recombinant, purified) (from UniProt Q07794 1-436) (enzyme)
- Kd: 150 nM

Substance: Vps75_(1−223) (Vps75 lacking the C-terminal acidic domain) (from UniProt P53853 1-223) (domain or fragment)
- Kd: 13 nM
